Test results as given in patent US20180273587A1 (AILERON THERAPEUTICS, published 2018).
Values belong to the binder of their own block, whether it stands above or below them. Positions of bridges follow the written chain, without caps; N, C: chain ends. Non-standard residues stand in square brackets, D forms with d. R8 = C=CCCCCCC[C@@](C)(N)C(=O)O; Cha = N[C@@H](CC1CCCCC1)C(=O)O; S5 = C=CCCC[C@](C)(N)C(=O)O

Columns and labels:
Assay in all cases: Ki table, method not stated
[1] = target: T1, MCL-1 (UniProt Q07820 172-327, limits assumed)
T1 construct: also called Myeloid cell leukemia 1

[2] = target: BCL-XL (UniProt Q07817 1-209)
[3] = target: BCL-2 (UniProt P10415 1-217, limits assumed)
BCL-2, sequence (P10415 1-217 limits assumed): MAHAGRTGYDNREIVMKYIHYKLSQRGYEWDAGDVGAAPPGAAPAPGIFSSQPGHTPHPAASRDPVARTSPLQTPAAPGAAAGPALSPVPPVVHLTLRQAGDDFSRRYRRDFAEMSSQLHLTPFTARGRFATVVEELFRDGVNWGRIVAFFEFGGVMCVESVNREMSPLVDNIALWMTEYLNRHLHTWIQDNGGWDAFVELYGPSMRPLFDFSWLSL

BCL-XL, sequence (Q07817 1-209): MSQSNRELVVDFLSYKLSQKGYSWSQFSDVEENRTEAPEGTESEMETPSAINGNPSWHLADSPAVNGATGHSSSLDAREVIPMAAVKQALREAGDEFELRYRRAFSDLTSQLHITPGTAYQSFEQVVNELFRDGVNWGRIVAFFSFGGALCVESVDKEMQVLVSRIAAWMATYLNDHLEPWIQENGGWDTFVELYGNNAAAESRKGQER
T1 sequence (Q07820 172-327 limits assumed): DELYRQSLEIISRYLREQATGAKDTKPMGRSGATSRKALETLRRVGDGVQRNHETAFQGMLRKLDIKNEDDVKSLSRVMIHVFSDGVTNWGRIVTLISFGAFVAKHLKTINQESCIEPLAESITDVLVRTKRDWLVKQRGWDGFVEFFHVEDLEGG

Ki [1]: 177 nM
Ki [2]: 154 nM
Ki [3]: 502 nM
B1: SEQ ID NO: 1664 (peptide)
peptide: Ac-IWIAQAAR[R8]IGDAAN[S5]YYA-NH2
modifications: staple 9-16
SMILES: CC[C@H](C)[C@H](NC(C)=O)C(=O)N[C@@H](Cc1c[nH]c2ccccc12)C(=O)N[C@H](C(=O)N[C@@H](C)C(=O)N[C@@H](CCC(N)=O)C(=O)N[C@@H](C)C(=O)N[C@@H](C)C(=O)N[C@@H](CCCNC(=N)N)C(=O)N[C@]1(C)CCCCCCC=CCCC[C@@](C)(C(=O)N[C@@H](Cc2ccc(O)cc2)C(=O)N[C@@H](Cc2ccc(O)cc2)C(=O)N[C@@H](C)C(N)=O)NC(=O)[C@H](CC(N)=O)NC(=O)[C@H](C)NC(=O)[C@H](C)NC(=O)[C@H](CC(=O)O)NC(=O)CNC(=O)[C@H]([C@@H](C)CC)NC1=O)[C@@H](C)CC

Ki [1]: 96.3 nM
Ki [2]: 7.7 nM
Ki [3]: 84 nM
B2: SEQ ID NO: 1665 (peptide)
peptide: Ac-IWIAQALR[R8]IADAFN[S5]YYA-NH2
modifications: staple 9-16
SMILES: CC[C@H](C)[C@H](NC(C)=O)C(=O)N[C@@H](Cc1c[nH]c2ccccc12)C(=O)N[C@H](C(=O)N[C@@H](C)C(=O)N[C@@H](CCC(N)=O)C(=O)N[C@@H](C)C(=O)N[C@@H](CC(C)C)C(=O)N[C@@H](CCCNC(=N)N)C(=O)N[C@]1(C)CCCCCCC=CCCC[C@@](C)(C(=O)N[C@@H](Cc2ccc(O)cc2)C(=O)N[C@@H](Cc2ccc(O)cc2)C(=O)N[C@@H](C)C(N)=O)NC(=O)[C@H](CC(N)=O)NC(=O)[C@H](Cc2ccccc2)NC(=O)[C@H](C)NC(=O)[C@H](CC(=O)O)NC(=O)[C@H](C)NC(=O)[C@H]([C@@H](C)CC)NC1=O)[C@@H](C)CC

Ki [1]: 22 nM
Ki [2]: 28 nM
Ki [3]: 179 nM
B3: SEQ ID NO: 1671 (peptide)
peptide: Ac-IWFAQALR[R8]IGDAFN[S5]YYA-NH2
modifications: staple 9-16
SMILES: CC[C@H](C)[C@H](NC(C)=O)C(=O)N[C@@H](Cc1c[nH]c2ccccc12)C(=O)N[C@@H](Cc1ccccc1)C(=O)N[C@@H](C)C(=O)N[C@@H](CCC(N)=O)C(=O)N[C@@H](C)C(=O)N[C@@H](CC(C)C)C(=O)N[C@@H](CCCNC(=N)N)C(=O)N[C@]1(C)CCCCCCC=CCCC[C@@](C)(C(=O)N[C@@H](Cc2ccc(O)cc2)C(=O)N[C@@H](Cc2ccc(O)cc2)C(=O)N[C@@H](C)C(N)=O)NC(=O)[C@H](CC(N)=O)NC(=O)[C@H](Cc2ccccc2)NC(=O)[C@H](C)NC(=O)[C@H](CC(=O)O)NC(=O)CNC(=O)[C@H]([C@@H](C)CC)NC1=O

Ki [1]: 183 nM
Ki [2]: 18.1 nM
Ki [3]: 59.6 nM
B4: SEQ ID NO: 1667 (peptide)
peptide: Ac-IWIAQALR[R8]AGDAFN[S5]YYA-NH2
modifications: staple 9-16
SMILES: CC[C@H](C)[C@H](NC(C)=O)C(=O)N[C@@H](Cc1c[nH]c2ccccc12)C(=O)N[C@H](C(=O)N[C@@H](C)C(=O)N[C@@H](CCC(N)=O)C(=O)N[C@@H](C)C(=O)N[C@@H](CC(C)C)C(=O)N[C@@H](CCCNC(=N)N)C(=O)N[C@]1(C)CCCCCCC=CCCC[C@@](C)(C(=O)N[C@@H](Cc2ccc(O)cc2)C(=O)N[C@@H](Cc2ccc(O)cc2)C(=O)N[C@@H](C)C(N)=O)NC(=O)[C@H](CC(N)=O)NC(=O)[C@H](Cc2ccccc2)NC(=O)[C@H](C)NC(=O)[C@H](CC(=O)O)NC(=O)CNC(=O)[C@H](C)NC1=O)[C@@H](C)CC

Ki [1]: 22.8 nM
Ki [2]: 53.5 nM
Ki [3]: 84.9 nM
B5: SEQ ID NO: 1676 (peptide)
peptide: Ac-IWIAQALR[R8]IGDQFA[S5]YYA-NH2
modifications: staple 9-16
SMILES: CC[C@H](C)[C@H](NC(C)=O)C(=O)N[C@@H](Cc1c[nH]c2ccccc12)C(=O)N[C@H](C(=O)N[C@@H](C)C(=O)N[C@@H](CCC(N)=O)C(=O)N[C@@H](C)C(=O)N[C@@H](CC(C)C)C(=O)N[C@@H](CCCNC(=N)N)C(=O)N[C@]1(C)CCCCCCC=CCCC[C@@](C)(C(=O)N[C@@H](Cc2ccc(O)cc2)C(=O)N[C@@H](Cc2ccc(O)cc2)C(=O)N[C@@H](C)C(N)=O)NC(=O)[C@H](C)NC(=O)[C@H](Cc2ccccc2)NC(=O)[C@H](CCC(N)=O)NC(=O)[C@H](CC(=O)O)NC(=O)CNC(=O)[C@H]([C@@H](C)CC)NC1=O)[C@@H](C)CC

Ki [1]: 122 nM
Ki [2]: 1.9 nM
Ki [3]: 4.8 nM
B6: SEQ ID NO: 1668 (peptide)
peptide: Ac-IWIAQALR[R8]AGDQFN[S5]YYA-NH2
modifications: staple 9-16
SMILES: CC[C@H](C)[C@H](NC(C)=O)C(=O)N[C@@H](Cc1c[nH]c2ccccc12)C(=O)N[C@H](C(=O)N[C@@H](C)C(=O)N[C@@H](CCC(N)=O)C(=O)N[C@@H](C)C(=O)N[C@@H](CC(C)C)C(=O)N[C@@H](CCCNC(=N)N)C(=O)N[C@]1(C)CCCCCCC=CCCC[C@@](C)(C(=O)N[C@@H](Cc2ccc(O)cc2)C(=O)N[C@@H](Cc2ccc(O)cc2)C(=O)N[C@@H](C)C(N)=O)NC(=O)[C@H](CC(N)=O)NC(=O)[C@H](Cc2ccccc2)NC(=O)[C@H](CCC(N)=O)NC(=O)[C@H](CC(=O)O)NC(=O)CNC(=O)[C@H](C)NC1=O)[C@@H](C)CC

Ki [1]: 195 nM
Ki [2]: 416 nM
Ki [3]: 405 nM
B7: SEQ ID NO: 1674 (peptide)
peptide: Ac-IWIAQALR[R8]IGNAFN[S5]YYA-NH2
modifications: staple 9-16
SMILES: CC[C@H](C)[C@H](NC(C)=O)C(=O)N[C@@H](Cc1c[nH]c2ccccc12)C(=O)N[C@H](C(=O)N[C@@H](C)C(=O)N[C@@H](CCC(N)=O)C(=O)N[C@@H](C)C(=O)N[C@@H](CC(C)C)C(=O)N[C@@H](CCCNC(=N)N)C(=O)N[C@]1(C)CCCCCCC=CCCC[C@@](C)(C(=O)N[C@@H](Cc2ccc(O)cc2)C(=O)N[C@@H](Cc2ccc(O)cc2)C(=O)N[C@@H](C)C(N)=O)NC(=O)[C@H](CC(N)=O)NC(=O)[C@H](Cc2ccccc2)NC(=O)[C@H](C)NC(=O)[C@H](CC(N)=O)NC(=O)CNC(=O)[C@H]([C@@H](C)CC)NC1=O)[C@@H](C)CC

Ki [1]: 27.8 nM
Ki [2]: 15.8 nM
Ki [3]: 68.5 nM
B8: SEQ ID NO: 1669 (peptide)
peptide: Ac-IWIAQALR[R8]FGDAFN[S5]YYA-NH2
modifications: staple 9-16
SMILES: CC[C@H](C)[C@H](NC(C)=O)C(=O)N[C@@H](Cc1c[nH]c2ccccc12)C(=O)N[C@H](C(=O)N[C@@H](C)C(=O)N[C@@H](CCC(N)=O)C(=O)N[C@@H](C)C(=O)N[C@@H](CC(C)C)C(=O)N[C@@H](CCCNC(=N)N)C(=O)N[C@]1(C)CCCCCCC=CCCC[C@@](C)(C(=O)N[C@@H](Cc2ccc(O)cc2)C(=O)N[C@@H](Cc2ccc(O)cc2)C(=O)N[C@@H](C)C(N)=O)NC(=O)[C@H](CC(N)=O)NC(=O)[C@H](Cc2ccccc2)NC(=O)[C@H](C)NC(=O)[C@H](CC(=O)O)NC(=O)CNC(=O)[C@H](Cc2ccccc2)NC1=O)[C@@H](C)CC

Ki [1]: 29.3 nM
Ki [2]: 25.9 nM
Ki [3]: 205 nM
B9: SEQ ID NO: 1672 (peptide)
peptide: Ac-IWFAQALR[R8]IGDQFN[S5]YYA-NH2
modifications: staple 9-16
SMILES: CC[C@H](C)[C@H](NC(C)=O)C(=O)N[C@@H](Cc1c[nH]c2ccccc12)C(=O)N[C@@H](Cc1ccccc1)C(=O)N[C@@H](C)C(=O)N[C@@H](CCC(N)=O)C(=O)N[C@@H](C)C(=O)N[C@@H](CC(C)C)C(=O)N[C@@H](CCCNC(=N)N)C(=O)N[C@]1(C)CCCCCCC=CCCC[C@@](C)(C(=O)N[C@@H](Cc2ccc(O)cc2)C(=O)N[C@@H](Cc2ccc(O)cc2)C(=O)N[C@@H](C)C(N)=O)NC(=O)[C@H](CC(N)=O)NC(=O)[C@H](Cc2ccccc2)NC(=O)[C@H](CCC(N)=O)NC(=O)[C@H](CC(=O)O)NC(=O)CNC(=O)[C@H]([C@@H](C)CC)NC1=O

Ki [1]: 43.8 nM
Ki [2]: 14.4 nM
Ki [3]: 105 nM
B10: SEQ ID NO: 1677 (peptide)
peptide: Ac-IW[Cha]AQALR[R8]IGDAFN[S5]YYA-NH2
modifications: staple 9-16
SMILES: CC[C@H](C)[C@H](NC(C)=O)C(=O)N[C@@H](Cc1c[nH]c2ccccc12)C(=O)N[C@@H](CC1CCCCC1)C(=O)N[C@@H](C)C(=O)N[C@@H](CCC(N)=O)C(=O)N[C@@H](C)C(=O)N[C@@H](CC(C)C)C(=O)N[C@@H](CCCNC(=N)N)C(=O)N[C@]1(C)CCCCCCC=CCCC[C@@](C)(C(=O)N[C@@H](Cc2ccc(O)cc2)C(=O)N[C@@H](Cc2ccc(O)cc2)C(=O)N[C@@H](C)C(N)=O)NC(=O)[C@H](CC(N)=O)NC(=O)[C@H](Cc2ccccc2)NC(=O)[C@H](C)NC(=O)[C@H](CC(=O)O)NC(=O)CNC(=O)[C@H]([C@@H](C)CC)NC1=O
notes: also called Ac-IWChaAQALR$r8IGDAFN$YYA-NH2

Ki [1]: 74.1 nM
Ki [2]: 25.6 nM
Ki [3]: 66.1 nM
B11: SEQ ID NO: 1670 (peptide)
peptide: Ac-IWIAQALR[R8]FGDQFN[S5]YYA-NH2
modifications: staple 9-16
SMILES: CC[C@H](C)[C@H](NC(C)=O)C(=O)N[C@@H](Cc1c[nH]c2ccccc12)C(=O)N[C@H](C(=O)N[C@@H](C)C(=O)N[C@@H](CCC(N)=O)C(=O)N[C@@H](C)C(=O)N[C@@H](CC(C)C)C(=O)N[C@@H](CCCNC(=N)N)C(=O)N[C@]1(C)CCCCCCC=CCCC[C@@](C)(C(=O)N[C@@H](Cc2ccc(O)cc2)C(=O)N[C@@H](Cc2ccc(O)cc2)C(=O)N[C@@H](C)C(N)=O)NC(=O)[C@H](CC(N)=O)NC(=O)[C@H](Cc2ccccc2)NC(=O)[C@H](CCC(N)=O)NC(=O)[C@H](CC(=O)O)NC(=O)CNC(=O)[C@H](Cc2ccccc2)NC1=O)[C@@H](C)CC

Ki [1]: 116 nM
Ki [2]: 7.7 nM
Ki [3]: 25.6 nM
B12: SEQ ID NO: 1666 (peptide)
peptide: Ac-IWIAQALR[R8]IADQFN[S5]YYA-NH2
modifications: staple 9-16
SMILES: CC[C@H](C)[C@H](NC(C)=O)C(=O)N[C@@H](Cc1c[nH]c2ccccc12)C(=O)N[C@H](C(=O)N[C@@H](C)C(=O)N[C@@H](CCC(N)=O)C(=O)N[C@@H](C)C(=O)N[C@@H](CC(C)C)C(=O)N[C@@H](CCCNC(=N)N)C(=O)N[C@]1(C)CCCCCCC=CCCC[C@@](C)(C(=O)N[C@@H](Cc2ccc(O)cc2)C(=O)N[C@@H](Cc2ccc(O)cc2)C(=O)N[C@@H](C)C(N)=O)NC(=O)[C@H](CC(N)=O)NC(=O)[C@H](Cc2ccccc2)NC(=O)[C@H](CCC(N)=O)NC(=O)[C@H](CC(=O)O)NC(=O)[C@H](C)NC(=O)[C@H]([C@@H](C)CC)NC1=O)[C@@H](C)CC
